According to publication PMC12466997, “Coming Clean and Avoiding Bubble Trouble–Using Detergents Wisely in the Purification of Membrane Proteins for Cryo-EM Studies” (Biomolecules, 2025):

Key:
[1] = biological target: the molecule itself; experiment: cryo-EM 2D class averages; WzzB^ST in DDM; 2D classes and an unmasked 3D reconstruction; smaller oligomer and end-to-end pseudo-D-symmetrical pairs of complexes
[2] = biological target: the molecule itself; experiment: cryo-EM structure; WzzB^ST at 10 mg/mL in 20 mM Tris pH 7.5, 150 mM NaCl, 0.025% DDM; single-particle analysis in RELION 5, ~4.2 Å, C6 ring of dimers; AlphaFold2 model fitted and refined
[3] = biological target: the molecule itself; experiment: cryo-EM structure; MjCorA at 2 mg/mL in 50 mM Tris/HCl pH 8.0, 200 mM NaCl, DDM; initial 3D classification of ~550,000 particles, binned x4, resolution limited to ~6 Å

B1: WzzB^ST (natural protein)
chain: MTVDSNTSSGRGNDPEQIDLIELLLQLWRGKMTIIVAVIIAILLAVGYLMIAKEKWTSTAIITQPDAAQVATYTNALNVLYGGNAPKISEVQANFISRFSSAFSALSEVLDNQKEREKLTIEQSVKGQALPLSVSYVSTTAEGAQRRLAEYIQQVDEEVAKELEVDLKDNITLQTKTLQESLETQEVVAQEQKDLRIKQIEEALRYADEAKITQPQIQQTQDVTQDTMFLLGSDALKSMIQNEATRPLVFSPAYYQTKQTLLDIKNLKVTADTVHVYRYVMKPTLPVRRDSPKTAITLVLAVLLGGMIGAGIVLGRNALRSYKPKAL
notes: WzzB^ST, bacterial inner membrane polysaccharide copolymerase (O-antigen chain length regulator); the AlphaFold2 model AF-Q04866-F1 of the full-length protein was fitted into the map; periplasmic domain residues 55-289, TM residues 20-54 and 289-319; source: extraction and purification as previously described [65]; purified, in 20 mM Tris pH 7.5, 150 mM NaCl, 0.025% DDM; copies: 12
[1]
  stoichiometry N: ~4
[2]
  stoichiometry N: 12

B2: Methanocaldococcus jannaschii CorA (natural protein, UniProt Q58439 1-317, looked up)
chain: MITVIAIAKDGSIVEPKLDEISFEDYRLIWIDCYDPKDEELYKLSKKIGISVSDLQIGLDEQEIPRVEEDEDFYLIIYKAPLFEEDITTTSLGIYIKNNLLLTIHSDKIKAIGRLHKLISTKKPRIVFERGIGFLLYHILNEITRSYSRILMNLEDELEELEDKLLAGYDREVMEKILGLRKTLVYFHKSLIANRDVLVLLKRKYLPITTKEDRENFEDLYYDTLQLIDMSATYREVLTSMMDITLSLENIKMNQIMKILTMVTTIFAVPMWITGIYGMNFSYLPLANNPQGFWLVMALMVVIIMIFVYIFRRSGWI
notes: CorA magnesium channel (divalent metal ion transporter) of Methanocaldococcus jannaschii, E. coli codon-optimised, in pET15b; The HA tag is said to precede MjCorA; the His-tag was removed by thrombin; also called MjCorA; McCorA
[3]
  stoichiometry N: 5
